Measurements reported in article doi:10.1101/2025.08.23.671895, “Detergent-free reconstitution of transmembrane proteins in giant liposomes of complex curvature by the Synthetic Membrane Transfer” (bioRxiv, 2025).

Target: the molecule itself
Assay: cryo-EM structure; maltoporin reconstituted in amphipol A8-35 (filaments); 2D classification and 3D reconstruction

B1: maltoporin (natural protein, UniProt P02943 26-446, looked up)
chain: VDFHGYARSGIGWTGSGGEQQCFQTTGAQSKYRLGNECETYAELKLGQEVWKEGDKSFYFDTNVAYSVAQQNDWEATDPAFREANVQGKNLIEWLPGSTIWAGKRFYQRHDVHMIDFYYWDISGPGAGLENIDVGFGKLSLAATRSSEAGGSSSFASNNIYDYTNETANDVFDVRLAQMEINPGGTLELGVDYGRANLRDNYRLVDGASKDGWLFTAEHTQSVLKGFNKFVVQYATDSMTSQGKGLSQGSGVAFDNEKFAYNINNNGHMLRILDHGAISMGDNWDMMYVGMYQDINWDNDNGTKWWTVGIRPMYKWTPIMSTVMEIGYDNVESQRTGDKNNQYKITLAQQWQAGDSIWSRPAIRVFATYAKWDEKWGYDYTGNADNNANFGKAVPADFNGGSFGRGDSDEWTFGAQMEIWW
notes: maltoporin, a beta-barrel transmembrane protein; One protein embedded in two polymers (SMA or amphipol A8-35); E. coli LamB is my surmise; also called maltoporin-SMA; maltoporin-Apol; source: purified using DDM-mediated extraction, detergent exchanged with SMA (bio-beads) or amphipol A8-35
  stoichiometry N: 3
